# Reference: the supplement of paper PMC12764529
# ± gives the half width of the 95% confidence interval.
# Test: folding stability dG unfold from chymotrypsin proteolysis; higher = more stable
# How it was run: (§1)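 Sequencing followed digestion of designed mini-proteins with trypsin and chymotrypsin, each at 11 concentrations in threefold dilutions together with a no-protease condition. The mini-proteins were under 80 residues, had no cysteine, sat in a PA-tagged cDNA display construct, and were kept only if AlphaFold2 dimer inter-PAE was above 15. From the counts, Bayesian fitting gave K50, and unfolding free energy was derived against a sequence-predicted unfolded-state K50 and a shared folded-state K50, per protease or combined.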
row,Sequence,folding stability dG unfold
1,SAGGGSTSTSTSTSTDPATGATTTTTTTTVPTPDGSGTVTTTTTTVPGAAPDTDTAPVTTTTTTTPTPSAGG [r13_715_JUSTAS],2.14 ± 0.086 kcal/mol
2,SAGKVKIVKIDKGKNKITIEFYDDGKKIATIPFPPNFPNTKVIAEVNEDGSIKVTFISGDKPIEITIDASAG [r5_533_TrMRF],2.64 ± 0.1 kcal/mol
3,SAGGSAGGSAGGKITFAPKTTLLLTATIPVTVYSLHPDGTLTTETRSATITFTIPPELLSAGGSAGGSAGGS [r10_383_TrMRF],4.1 ± 0.074 kcal/mol
4,SAMKVKVIVINPDGKPQEFEFEAEEGDPEKLVEEVEAEIKKLHPNSDIKFKAEVLEVKPDGEITILVSDSAG [r14_622_TrMRF],2.77 ± 0.05 kcal/mol
5,SAGGSAGGSAGPIVYPYGKYLVVYNPETGALVVVELDPDGKVKKVVVFGKDGPLVELDDASAGGSAGGSAGG [r17_385_TrMRF],3.369 ± 0.022 kcal/mol
6,SAGGSAKPDLVRTGPLLLPTAVVLPSVHFADPDVSVSLFRTPNGPPYLALAFIDPETGEPHIVLFPSAGGSA [r15_84_TrMRF],1.71 ± 0.07 kcal/mol
7,SAMVYPYLLRVYLPGSGEVVYFPASSLEEAVELLEEVAALPNVNSVDLYTPDGTKVHFLIDVPPEAFEESAG [r14_747_TrMRF],2.891 ± 0.022 kcal/mol
8,SAGGSAGGEIPPNIKKIETLPDDGWLMVKVDSPKDIREFFEDHGWEIKDVEEEGNTIHIPIKPKSAGGSAGG [r6_381_TrROS],0.893 ± 0.24 kcal/mol
9,SAGGSAGGSAGGAKTTTLGSESEEEIRAVAAKLPADSTITTNRPGGTSVITVSPNEIVTNSAGGSAGGSAGG [r7_560_JUSTAS],1.22 ± 0.046 kcal/mol
10,SAGGSAGGSAGGMKVYRIGPDLYLVENEDGSLRIYNRDTGKVFTFKPGETITITIPPELLSAGGSAGGSAGG [r7_299_TrROS_Hall],2.79 ± 0.059 kcal/mol
11,SAGGSAGGSMDLKNAKIISIEETENEIKITIEVDGKLYTITISKEEAEKLKKLLEDLNIEIIPSAGGSAGGS [r12_604_TrROS_Hall],4.3 ± 0.079 kcal/mol
12,SAGGMESSVTTTPDPNSDTTTTTTTVPLPDETTTTTTTTTTAPGTVTTTTTTYPPGGTPTTTTSTTASAGGS [r16_733_JUSTAS],1.61 ± 0.052 kcal/mol
13,SAGGSAGGNEIAEKLKKKYPNIKIKSVKINPKEGKIEIDLGFPKDAKPETIKKIEKEIEELAKKSAGGSAGG [r6_97_TrMRF],0.442 ± 0.14 kcal/mol
14,SAGGNIKIKLKGKIYDLNSNKYYDVEIEYDPKTGKAIITTPKGLKFEINPKEKKAEIPSKNYALEIGSAGGS [r16_743_TrMRF],1.37 ± 0.17 kcal/mol
15,SAGGSAGGSAGGMNIKVLKEFEFETEDGVPVRYLLVDAGGEEGETVVIKETPTSIEIIPFSAGGSAGGSAGG [r7_960_TrMRF],0.511 ± 0.17 kcal/mol
16,SAGEEIEELAKKLADELREKYPELEVKVEVVEVTVKTTVVKDKETGKLYTKTEITVKLKVEVVPKEELSAGG [r19_293_TrROS_Hall],3.81 ± 0.21 kcal/mol
17,SAGGSAGGSAGMTLTVTSPSSDTPIGTIELPSSLSEEELEAAVEAVRAALPPDVTVEVTGSAGGSAGGSAGG [r11_1081_JUSTAS],0.954 ± 0.046 kcal/mol
18,NPGKPLEIDIEVDIFEFPGGKFAIITFPIRLPGNGYWVQIEFWINPDGGLVMKIDVYDPGNGKPEEITIPIS [r1_261_TrROS],5.04 ± 0.2 kcal/mol
19,SAGGSAGGSAGDTSVEYEVSVTVEVFPLPDYALVKVTLEVDYPDGSKEKVEYVFLVSPYEGSAGGSAGGSAG [r3_330_TrMRF],3.35 ± 0.082 kcal/mol
20,SAGGMSLEHVTEIVETVTHPDGTKTVTIRLSDPAIWAGEDPATAAALAEAVQAEHADEGVAVTVVGAPSAGG [r13_243_JUSTAS],1.05 ± 0.042 kcal/mol
21,SAGGEPVKFIPPGWKITLTTPDGRPLTFTLPANATPEDFKSLELPGDHELEFVEFLPDGTILVRSPKSAGGS [r16_103_TrMRF],1.2 ± 0.18 kcal/mol

# Test: folding stability dG unfold from trypsin proteolysis; higher = more stable
# How it was run: as §1
row,Sequence,folding stability dG unfold
1,SAEVIEKTLTETVIGDTVVTPSVVEFPDGSVVEKVTTVSPDGTVTVTTYYFPPDGVRTFLSTTTVPLDLSAG [r14_680_JUSTAS],0.585 ± 0.03 kcal/mol
2,SAGGSMKVKIEVEKTPKGYKVRITVEKDGKTYEFEFPEDMSLEEVLEKLKKELEKEGVEIEKIEIVSAGGSA [r2_497_TrROS_Hall],3.15 ± 0.13 kcal/mol
3,SAGGSAGGSKVKLTFTIPPGTTPEEAIAKAEELAKKLNIPIVKIDSIEYDPETGTVRIELELDSAGGSAGGS [r12_131_TrMRF],4.05 ± 0.15 kcal/mol
4,SAGGSAGGSAGGNYVVRIEHNGQPIMEQPFPGSLEDAKDYVKEIAQFFPPDKVKIEVYKFSAGGSAGGSAGG [r7_81_TrROS],-0.0528 ± 0.057 kcal/mol
5,SAGGPRVEVEEVELEGDYLVVRARVEVPLDDGTYEFELTLVLPVPPPPLPLPPVDPRFPRAPDDDLVSAGGS [r8_234_TrMRF],0.584 ± 0.073 kcal/mol
6,SAGGSAGGRVVLSAEEIEKLKPGDEIELLVRDKETGEWRRVKARVVRIERVGDRVYVEIEIEPESAGGSAGG [r6_753_TrROS_Hall],4.53 ± 0.25 kcal/mol
7,SAPKILKVETFPDGSIKVEIPLPETGAIVTITVDPDGNVVVEFYPPKSGKPVRKTIPGKTIEEVLKELGSAG [r14_760_TrMRF],1.41 ± 0.086 kcal/mol
8,SAGGSASLEELAEKLREKLPPEEAEKLRELLKELEEKGYEIVEIRIEVLPNGEKKVTIKLKVKKKPSAGGSA [r15_613_TrROS_Hall],3.34 ± 0.2 kcal/mol
9,SAGGDPNTARVVVLTGHPDVITPEQIRTLLENLGADEIKSVEVFTTPTSRVVRFVDSNGAPTVIFVPSAGGS [r8_86_TrMRF],1.8 ± 0.038 kcal/mol
10,SAGGKKKLVEITIKVPPGMTVEELIAEIAKKLPPGAKIVKVEYDKETKEIKIIVYDEKTKKKIEIKFSAGGS [r16_250_TrROS_Hall],1.81 ± 0.049 kcal/mol
11,SAGTIWIPVDELKELGIPPGDTAEEFKQQISDRLMEQGWTVKIPDIEVEPLDPNDGRVWVRINIEFKPPSAG [r5_23_TrROS],1.26 ± 0.05 kcal/mol
12,SAGGSAGGSAPGSMLRIPVSEEELKKKGLTPEELAKEIRERYPELPESVVVEFPPDGNIVIVESAGGSAGGS [r12_50_JUSTAS],0.906 ± 0.05 kcal/mol
13,SAGGKKVKIKVTIVIKVEPGESVEEIAKKLAEELGLKVEVKVEVVKRKDGSLYVVIEVEIELPEELKPSAGG [r13_590_TrROS_Hall],2.3 ± 0.16 kcal/mol
14,SAGGSAGGSAGGIYPGPGNLLYFTGEDDYVKVIKITPPDNTIKIDIEIVPKGEATKIPYSAGGSAGGSAGGS [r10_257_TrMRF],0.161 ± 0.059 kcal/mol
15,SAGGSAGGEVKTIEIEIEITDEDGRKYRIKMEAEVLPNGEIIIRMEIEDEETNETYEMTIVLKPSAGGSAGG [r6_726_TrROS_Hall],3.57 ± 0.19 kcal/mol
16,SAGGSAMGTLRLGFVTGPDEEGRYEILDVTLEPGEPVLVTLRARFTFPDGDSVEVPFRFVVPPELLSAGGSA [r15_187_TrMRF],2.78 ± 0.038 kcal/mol
17,SAGGSAMAPNVRPIPIFIDVPAEPFTRDPDGRIGLTPEELARRLAEEIRARTGAPIDTIVVHFHEPSAGGSA [r15_415_TrMRF],0.773 ± 0.11 kcal/mol
18,SAGGSAGGSGMTVVTLEAEPETAEEAVAAAIQAIRDALPADETIASVEVSFDPATGKVTVVVESAGGSAGGS [r12_308_JUSTAS],0.757 ± 0.051 kcal/mol
19,SAGGSEIKIEIKYDEETGELVVEITVPESEEEVKKLVEELKKLGVEKVEIVRDKKTKEYRIRVVFKSAGGSA [r2_358_TrROS_Hall],3.28 ± 0.14 kcal/mol
20,SAGGSAGGSKKPKAKIKKIEFFPEGNKIVALVEFPDKVIKEIVFENLPPEEAIKKALEFAKKGSAGGSAGGS [r20_181_TrMRF],1.08 ± 0.036 kcal/mol
21,SAGGETLTVTVLIKNKDEKNKYYKVEVKVTVEKNENGEKTLTIEMKITDKNGNKKTIKVNLKDIKIIDSAGG [r13_787_TrROS_Hall],2.52 ± 0.26 kcal/mol

row,Sequence,folding stability dG unfold
1,SAGGGSTSTSTSTSTDPATGATTTTTTTTVPTPDGSGTVTTTTTTVPGAAPDTDTAPVTTTTTTTPTPSAGG [r13_715_JUSTAS],2.49 ± 0.1 kcal/mol
2,SAGKVKIVKIDKGKNKITIEFYDDGKKIATIPFPPNFPNTKVIAEVNEDGSIKVTFISGDKPIEITIDASAG [r5_533_TrMRF],2.57 ± 0.16 kcal/mol
3,SAGGSAGGSAGGKITFAPKTTLLLTATIPVTVYSLHPDGTLTTETRSATITFTIPPELLSAGGSAGGSAGGS [r10_383_TrMRF],2.4 ± 0.086 kcal/mol
4,SAMKVKVIVINPDGKPQEFEFEAEEGDPEKLVEEVEAEIKKLHPNSDIKFKAEVLEVKPDGEITILVSDSAG [r14_622_TrMRF],2.03 ± 0.19 kcal/mol
5,SAGGSAGGSAGPIVYPYGKYLVVYNPETGALVVVELDPDGKVKKVVVFGKDGPLVELDDASAGGSAGGSAGG [r17_385_TrMRF],2.76 ± 0.067 kcal/mol
6,SAGGSAKPDLVRTGPLLLPTAVVLPSVHFADPDVSVSLFRTPNGPPYLALAFIDPETGEPHIVLFPSAGGSA [r15_84_TrMRF],0.934 ± 0.036 kcal/mol
7,SAMVYPYLLRVYLPGSGEVVYFPASSLEEAVELLEEVAALPNVNSVDLYTPDGTKVHFLIDVPPEAFEESAG [r14_747_TrMRF],2.67 ± 0.12 kcal/mol
8,SAGGSAGGEIPPNIKKIETLPDDGWLMVKVDSPKDIREFFEDHGWEIKDVEEEGNTIHIPIKPKSAGGSAGG [r6_381_TrROS],0.648 ± 0.072 kcal/mol
9,SAGGSAGGSAGGAKTTTLGSESEEEIRAVAAKLPADSTITTNRPGGTSVITVSPNEIVTNSAGGSAGGSAGG [r7_560_JUSTAS],0.144 ± 0.043 kcal/mol
10,SAGGSAGGSAGGMKVYRIGPDLYLVENEDGSLRIYNRDTGKVFTFKPGETITITIPPELLSAGGSAGGSAGG [r7_299_TrROS_Hall],2.18 ± 0.075 kcal/mol
11,SAGGSAGGSMDLKNAKIISIEETENEIKITIEVDGKLYTITISKEEAEKLKKLLEDLNIEIIPSAGGSAGGS [r12_604_TrROS_Hall],4.14 ± 0.23 kcal/mol
12,SAGGMESSVTTTPDPNSDTTTTTTTVPLPDETTTTTTTTTTAPGTVTTTTTTYPPGGTPTTTTSTTASAGGS [r16_733_JUSTAS],2.38 ± 0.17 kcal/mol
13,SAGGSAGGNEIAEKLKKKYPNIKIKSVKINPKEGKIEIDLGFPKDAKPETIKKIEKEIEELAKKSAGGSAGG [r6_97_TrMRF],0.578 ± 0.056 kcal/mol
14,SAGGNIKIKLKGKIYDLNSNKYYDVEIEYDPKTGKAIITTPKGLKFEINPKEKKAEIPSKNYALEIGSAGGS [r16_743_TrMRF],1.21 ± 0.096 kcal/mol
15,SAGGSAGGSAGGMNIKVLKEFEFETEDGVPVRYLLVDAGGEEGETVVIKETPTSIEIIPFSAGGSAGGSAGG [r7_960_TrMRF],0.856 ± 0.025 kcal/mol
16,SAGEEIEELAKKLADELREKYPELEVKVEVVEVTVKTTVVKDKETGKLYTKTEITVKLKVEVVPKEELSAGG [r19_293_TrROS_Hall],1.99 ± 0.23 kcal/mol
17,SAGGSAGGSAGMTLTVTSPSSDTPIGTIELPSSLSEEELEAAVEAVRAALPPDVTVEVTGSAGGSAGGSAGG [r11_1081_JUSTAS],1.41 ± 0.084 kcal/mol
18,NPGKPLEIDIEVDIFEFPGGKFAIITFPIRLPGNGYWVQIEFWINPDGGLVMKIDVYDPGNGKPEEITIPIS [r1_261_TrROS],3.27 ± 0.27 kcal/mol
19,SAGGSAGGSAGDTSVEYEVSVTVEVFPLPDYALVKVTLEVDYPDGSKEKVEYVFLVSPYEGSAGGSAGGSAG [r3_330_TrMRF],2.56 ± 0.19 kcal/mol
20,SAGGMSLEHVTEIVETVTHPDGTKTVTIRLSDPAIWAGEDPATAAALAEAVQAEHADEGVAVTVVGAPSAGG [r13_243_JUSTAS],-0.642 ± 0.26 kcal/mol
21,SAGGEPVKFIPPGWKITLTTPDGRPLTFTLPANATPEDFKSLELPGDHELEFVEFLPDGTILVRSPKSAGGS [r16_103_TrMRF],0.948 ± 0.088 kcal/mol
